Experimental findings from patent US20160272698A1 are described below.

The target in assay [1] is Bacillus anthracis lethal factor (recombinant LF) (Bacillus anthracis) (UniProt P15917). Nature of the assay: immunoblot of denatured recombinant LF.
In assay [2] the target is AVR1674 (LFG2 3F3:3H9:2C10:4B10). Kind of assay: biolayer interferometry (Octet), biotinylated peptide on streptavidin tips, LFG2:4B10 mAb at 500 nM. In general terms: Biolayer interferometry detects binding as a change in optical thickness at a sensor tip.
Assay [3] shares this target. Kind of assay: biolayer interferometry (Octet), follow-up experiment, 4-point titration of mAb LFG2 against the peptide.
Assay [4] shares this target. Nature of the assay: biolayer interferometry (Octet), biotinylated peptide on streptavidin tips, LFG2:4B10 mAb in solution, 1:1 Langmuir fit.

Ends that are not written are not given here. Bounds are passed on as bounds.

UniProt P15917, sequence (P15917 34-809 limits assumed): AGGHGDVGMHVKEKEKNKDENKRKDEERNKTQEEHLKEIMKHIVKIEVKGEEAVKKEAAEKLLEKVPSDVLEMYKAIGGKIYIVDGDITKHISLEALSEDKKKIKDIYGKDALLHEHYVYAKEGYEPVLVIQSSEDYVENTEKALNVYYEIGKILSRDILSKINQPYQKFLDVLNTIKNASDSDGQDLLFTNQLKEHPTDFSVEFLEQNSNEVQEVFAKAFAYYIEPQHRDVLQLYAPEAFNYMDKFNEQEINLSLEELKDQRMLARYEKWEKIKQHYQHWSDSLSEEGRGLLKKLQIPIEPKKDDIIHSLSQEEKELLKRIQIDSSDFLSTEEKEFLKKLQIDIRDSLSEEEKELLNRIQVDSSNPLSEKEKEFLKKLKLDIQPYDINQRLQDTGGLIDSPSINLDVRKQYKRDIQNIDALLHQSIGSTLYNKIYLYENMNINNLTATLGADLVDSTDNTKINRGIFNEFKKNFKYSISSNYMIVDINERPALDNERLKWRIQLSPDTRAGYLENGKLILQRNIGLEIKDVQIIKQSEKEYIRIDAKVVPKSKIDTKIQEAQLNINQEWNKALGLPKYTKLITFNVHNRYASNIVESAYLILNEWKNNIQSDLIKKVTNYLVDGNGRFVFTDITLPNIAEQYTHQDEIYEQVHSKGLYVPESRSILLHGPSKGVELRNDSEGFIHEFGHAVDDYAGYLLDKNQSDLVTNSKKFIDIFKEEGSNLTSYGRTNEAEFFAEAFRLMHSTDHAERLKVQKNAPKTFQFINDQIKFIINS

B1: AVR1674 (LFG2 3F3:3H9:2C10:4B10) (antibody, V domains shown)
VH: EVQLQVSGAELVKPGASVRLSCKASGYTFTSYYIYWVKQRPGQGLEWIGDINPSDGDTDFNEKFKSKATLTVDKSSSTAYMQLSSLTSEDSAVYYCTRSRGGFAYWGQGTLVTVSA
VL: SHGDQASISSRSSQSIVHSNGNTYLEWYLQKPAQSPKLLIFKVSNRFSGVPDRFSRSGSGTDFTLKISRVEAEDLGIYYCSQGSHVPWTFGGGTKL
As for B1, the amount of LF detected by immunoblot in assay [1] is < 30 ng.
In turn, TFKDEIGGGSK-biotin […-biotin (SEQ ID NO: 25)] yielded a Response R in assay [2] of 4.84 nm. The Kd in assay [3] was 9.97 nM; in assay [4], 13.9 nM.
TFKDEAGGGSK-biotin […-biotin (SEQ ID NO: 31)] had a Response R in assay [2] of 5.29 nm. Further, the Kd in assay [4] came to 16.4 nM.
In the same order, the values of TFQDEIGGGSK-biotin […-biotin (SEQ ID NO: 37)] are 1.34 nm and 34.4 nM.
On the same counts, the results for THKDEIGGGSK-biotin […-biotin (SEQ ID NO: 36)] are 2.37 nm and 60 nM.
On the same counts, the results for TFKDAIGGGSK-biotin […-biotin (SEQ ID NO: 30)] are 1.01 nm and 24.5 nM.

As usually defined, the Kd is the constant that tells how readily two partners part at equilibrium. Lower therefore signals tighter binding.
